Reference: publication PMC8053098

Biological target: Escherichia coli MnmA, as-purified (aerobically purified, tag removed) (Escherichia coli) (UniProt P25745)
Assay: SEC-MALS

“Escherichia coli MnmA, as-purified (aerobically purified, tag removed) (from UniProt P25745 1-368) (enzyme)” was tested, and the stoichiometry N was 2.
